Data on one molecule can be found in paper PMC8655031, “Loss of peptidase D binding restores the tumor suppressor functions of oncogenic p53 mutants” (Communications Biology, 2021).

As a reminder, the stoichiometry N is a count of units in the complex or per binding partner.

For data set [1], the target named is T1, recombinant human p53, N-terminal His tagged (human, UniProt P04637 1-393).
T1 construct: human p53 from pET15b-His-human p53; also called His-human p53; source: E. coli BL21-AI, purified (Ni-NTA)
Nature of the data set: cross-linking; PEPD (801 nM) and p53 or p53^R175H (114 nM), alone or together, in PBS pH 7.4 for 15 min at RT, then 2 mM BS3 for 30 min at RT; WB on 5% SDS-PAGE. Particulars: both partners purified.

Data set [2] concerns the molecule itself. The data set is described as above.

B1: recombinant human PEPD (peptidase D), C-terminal His tagged (enzyme, UniProt P12955 1-493, looked up)
chain: MAAATGPSFWLGNETLKVPLALFALNRQRLCERLRKNPAVQAGSIVVLQGGEETQRYCTDTGVLFRQESFFHWAFGVTEPGCYGVIDVDTGKSTLFVPRLPASHATWMGKIHSKEHFKEKYAVDDVQYVDEIASVLTSQKPSVLLTLRGVNTDSGSVCREASFDGISKFEVNNTILHPEIVECRVFKTDMELEVLRYTNKISSEAHREVMKAVKVGMKEYELESLFEHYCYSRGGMRHSSYTCICGSGENSAVLHYGHAGAPNDRTIQNGDMCLFDMGGEYYCFASDITCSFPANGKFTADQKAVYEAVLRSSRAVMGAMKPGVWWPDMHRLADRIHLEELAHMGILSGSVDAMVQAHLGAVFMPHGLGHFLGIDVHDVGGYPEGVERIDEPGLRSLRTARHLQPGMVLTVEPGIYFIDHLLDEALADPARASFLNREVLQRFRGFGGVRIEEDVVVTDSGIELLTCVPRTVEEIEACMAGCDKAFTPFSGPK
notes: human peptidase D (PEPD, prolidase), from pBAD/TOPO-human PEPD-His; the discussion speaks of PEPD as 493 aa; also called prolidase; PEPD-His; source: E. coli One Shot TOP10, purified (Ni-NTA)
Take B1: the “stoichiometry N” value in data set [1] is 1 PEPD dimer per p53 tetramer; in data set [2], 2.
